US20230001007A1, “Glycan-Interacting Compounds and Methods of Use” (Seagen Inc., priority 2017, published 2023)

How the values were obtained:
HT29 = experiment: STn expression on CRC line by flow cytometry using anti-STn antibodies; type: cell-based; settings: detected using hSIA101
Procedure: (§1) Mouse antibodies were characterized for in vitro and in vivo efficacy in breast, colon and ovarian cancer models. The antibodies were used to identify CRC cell lines that express STn on the surface. Five CRC lines were incubated in vitro and grown to confluency. % STn expression was determined by flow cytometry using anti-STn antibodies. Approximately 30-70% of cultured SW403, COL0205 and LS174T cells naturally expressed STn on the surface (as detected using mSIA103), while HT29 and RKO had very little to no detectable STn (as detected using hSIA101) on their cell surface (see Table 6).

RKO = experiment: as above; type: cell-based; settings: detected using hSIA101
Procedure: as §1

[1] = target: bovine submaxillary mucin (BSM); experiment: BSM ELISA, periodate-sensitive STn binding; settings: periodate-sensitive STn binding curve, 0 to 100 nM
Procedure: For BSM ELISA analysis, antibodies were screened over a concentration range of 0 to 100 nM on bovine submaxillary mucin (BSM) coated wells. A subset of wells were treated with mild periodate solution before antibody introduction to remove the side chain on terminal sialic acid residues (destroying the STn antigen). Optical densities of periodate and non-periodate-treated wells were determined and log transformed then fit to a nonlinear regression model to obtain a dose response curve. Optical density values obtained from periodate-treated wells were subtracted from non-periodate treated wells to obtain a periodate-sensitive STn binding curve and corresponding EC50 values.

[2] = tested on: MDA-MB-231 cells transfected for enhanced expression of STn (STn positive cells); experiment: ADC cytotoxicity assay ([…]-GLO); type: cell-based; settings: MMAE-conjugated ADC versions; 72 hours; kill of STn positive cells
Procedure: MMAE-conjugated ADC versions of hSIA101, hSIA102, and hSIA103 were assessed in an ADC cytotoxicity assay using MDA-MB-231 cells (parental or transfected for enhanced expression of STn). Parental cells were grown in Eagle's Minimum Essential Medium (EMEM) supplemented with 10% FBS, lx Pen/Strep and 45 μg/mL gentamycin. STn positive cells were grown in the same media except with the addition of 1 mg/mL G418 for antibiotic selection. Cells were seeded separately (4,000 cells/well for parental cells or 2,000/well for STn positive cells) in 96-well plates using proper media described above. Cells were grown overnight. After 16-20 hours, cells were treated with varying concentrations of test antibodies in triplicate (50 nM to 0.012 nM) for 72 hours. Then, cells were analyzed using an ADC […]-GLO® luminescent cell viability assay kit (Promega, Madison, Wis.) to determine the amount of ATP present, an indicator of metabolically active cells. The assay uses a single reagent that is added directly to the cultured cells in serum-supplemented medium. The reagent lyses the cells and generates a luminescent signal proportional to the amount of ATP present. Luminescent signals were analyzed and used to calculate the half-maximal inhibitory concentration (IC50) values for each antibody used based on the concentration required to kill STn positive cells at half-maximal levels (see Table 9).

[3] = tested on: Primary patient CRC samples; experiment: STn expression in primary patient CRC samples by flow cytometry; type: cell-based; settings: % of viable CD45−/CD34− population
Excerpt: Primary patient CRC samples were probed by flow cytometry with hSIA101 and two commercial antibodies B72.3 and CC49. All 10 samples tested were STn positive. In the table, % STn is expressed as % of viable CD45−/CD34− population. STn expression was often more robustly identified with hSIA101 than the commercial antibodies.

normal human tissues = experiment: Tissue cross-reactivity study, frozen tissue sections; type: binding; parameters: key to tissue staining: 1+=weak staining; 2+=moderate staining; 3+=strong staining; 4+=intense staining; Neg=negative; freq=frequent (staining in >75%-100% of cells); occ=occasional (staining in >25%-50% of cells); rare refers to staining in 1-5% of cells; settings: for tissue staining: Human, 1-3 μg/ml
Procedure: Tissue cross-reactivity studies were conducted to assess the binding profile (both on- and potential off-target binding) to human and relevant species used in nonclinical safety testing. Humanized anti-STn antibodies were examined for binding to a panel of normal human, rat, mouse, and cynomolgus monkey tissues. The study was conducted on […] normal frozen tissue sections at 1-3 μg/ml: heart, brain, kidney, stomach, lung, small intestines, colon, liver, pancreas, spleen and bone marrow. The positive control was a human pancreatic neoplasm that contained STn positive cancer cells and the negative control was normal stromal cells contained within the same specimen. Staining across all normal tissues was restricted to the cytoplasm. Additional analyses were conducted without primary antibody or using isotype control IgG as negative controls.
Antibodies were also found to cross react with similar types of tissue from Cynomolgus monkey (see Table 17) and rat (not shown).

B1: hSIA101 (antibody, V domains shown)
VH: EVQLVQSGAEVKKPGASVKVSCKASGYTFTDHAIHWVRQAPGQGLEWMGYFSPGNDDIKYNEKFRGRVTMTADKSSSTAYMELRSLRSDDTAVYFCKRSLSTPYWGQGTLVTVSS
VL: DIVMTQSPDSLAVSLGERATINCKSSQSLLNRGNHKNYLTWYQQKPGQPPKLLIYWASTRESGVPDRFSGSGSGTDFTLTISSLQAEDVAVYYCQNDYTYPYTFGQGTKVEIK
- % STn expression (HT29): Low to non-detectable
- % STn expression (RKO): Low to non-detectable
- EC50 [1]: 4.2 nM
- IC50 [2]: 5.2 nM
- % STn+ ([3]; Sample 160093-2, Colon): 22.9%
- % STn+ ([3]; Sample 160101-2, Colon): 10%
- % STn+ ([3]; Sample 160102-2, Colon): 12.9%
- % STn+ ([3]; Sample 160104-2, Colon Met to Liver): 47.8%
- % STn+ ([3]; Sample 160115-2, Colon): 5.4%
- % STn+ ([3]; Sample 160127-2, Colon): 4.2%
- % STn+ ([3]; Sample 160149-1, Colon): 22.7%
- % STn+ ([3]; Sample 160151-1, Colon): 19.6%
- % STn+ ([3]; Sample 169068-1, Colon): 10.9%
- % STn+ ([3]; Sample 1601666, Colon): 29.4%
- staining of cerebrum, cerebellum, kidney and liver (normal human tissues): did not stain
- staining of positive control tissue (pancreatic neoplasm) (normal human tissues): strong membrane staining
- tissue staining (normal human tissues; Colon Epithelial Cells): 1+ freq (cytoplasm)
- tissue staining (normal human tissues; Colon Vessel): Neg
- tissue staining (normal human tissues; Heart Vessel): 2+ rare (cytoplasm)
- tissue staining (normal human tissues; Lung Epithelium): Neg
- tissue staining (normal human tissues; Pancreas Vessel): Neg
- tissue staining (normal human tissues; Small Intestine Epithelial Cells): 2-4+ freq (cytoplasm)
- tissue staining (normal human tissues; Spleen Vessel): 2-3+ freq (cytoplasm)
- tissue staining (normal human tissues; Stomach Epithelial Cells): 2-3+ freq (cytoplasm)
- tissue staining (normal human tissues; Stomach Vessel): Neg
- cross-reactivity with normal human tissues (normal human tissues; among the three tested antibodies): lowest cross-reactivity
- staining on cell membranes in any tissue (normal human tissues; normal tissues): No staining was observed
